Consider three molecules from publication PMC3575195 (Nature communications, 2012).

In series [1] the target is TRPP3-mCherry (human) (UniProt Q9P0L9). Nature of the series: single-molecule photobleaching.
Series [2] has as its target PKD1L3-mCherry (mouse, UniProt Q2EG98 21-2151). Nature of the series: single-molecule photobleaching.
Series [3] concerns the molecule itself. Description: single-molecule photobleaching.
Series [4] deals with the molecule itself. Description: SEC-MALS.

PKD1L3-mCherry, sequence (Q2EG98 21-2151): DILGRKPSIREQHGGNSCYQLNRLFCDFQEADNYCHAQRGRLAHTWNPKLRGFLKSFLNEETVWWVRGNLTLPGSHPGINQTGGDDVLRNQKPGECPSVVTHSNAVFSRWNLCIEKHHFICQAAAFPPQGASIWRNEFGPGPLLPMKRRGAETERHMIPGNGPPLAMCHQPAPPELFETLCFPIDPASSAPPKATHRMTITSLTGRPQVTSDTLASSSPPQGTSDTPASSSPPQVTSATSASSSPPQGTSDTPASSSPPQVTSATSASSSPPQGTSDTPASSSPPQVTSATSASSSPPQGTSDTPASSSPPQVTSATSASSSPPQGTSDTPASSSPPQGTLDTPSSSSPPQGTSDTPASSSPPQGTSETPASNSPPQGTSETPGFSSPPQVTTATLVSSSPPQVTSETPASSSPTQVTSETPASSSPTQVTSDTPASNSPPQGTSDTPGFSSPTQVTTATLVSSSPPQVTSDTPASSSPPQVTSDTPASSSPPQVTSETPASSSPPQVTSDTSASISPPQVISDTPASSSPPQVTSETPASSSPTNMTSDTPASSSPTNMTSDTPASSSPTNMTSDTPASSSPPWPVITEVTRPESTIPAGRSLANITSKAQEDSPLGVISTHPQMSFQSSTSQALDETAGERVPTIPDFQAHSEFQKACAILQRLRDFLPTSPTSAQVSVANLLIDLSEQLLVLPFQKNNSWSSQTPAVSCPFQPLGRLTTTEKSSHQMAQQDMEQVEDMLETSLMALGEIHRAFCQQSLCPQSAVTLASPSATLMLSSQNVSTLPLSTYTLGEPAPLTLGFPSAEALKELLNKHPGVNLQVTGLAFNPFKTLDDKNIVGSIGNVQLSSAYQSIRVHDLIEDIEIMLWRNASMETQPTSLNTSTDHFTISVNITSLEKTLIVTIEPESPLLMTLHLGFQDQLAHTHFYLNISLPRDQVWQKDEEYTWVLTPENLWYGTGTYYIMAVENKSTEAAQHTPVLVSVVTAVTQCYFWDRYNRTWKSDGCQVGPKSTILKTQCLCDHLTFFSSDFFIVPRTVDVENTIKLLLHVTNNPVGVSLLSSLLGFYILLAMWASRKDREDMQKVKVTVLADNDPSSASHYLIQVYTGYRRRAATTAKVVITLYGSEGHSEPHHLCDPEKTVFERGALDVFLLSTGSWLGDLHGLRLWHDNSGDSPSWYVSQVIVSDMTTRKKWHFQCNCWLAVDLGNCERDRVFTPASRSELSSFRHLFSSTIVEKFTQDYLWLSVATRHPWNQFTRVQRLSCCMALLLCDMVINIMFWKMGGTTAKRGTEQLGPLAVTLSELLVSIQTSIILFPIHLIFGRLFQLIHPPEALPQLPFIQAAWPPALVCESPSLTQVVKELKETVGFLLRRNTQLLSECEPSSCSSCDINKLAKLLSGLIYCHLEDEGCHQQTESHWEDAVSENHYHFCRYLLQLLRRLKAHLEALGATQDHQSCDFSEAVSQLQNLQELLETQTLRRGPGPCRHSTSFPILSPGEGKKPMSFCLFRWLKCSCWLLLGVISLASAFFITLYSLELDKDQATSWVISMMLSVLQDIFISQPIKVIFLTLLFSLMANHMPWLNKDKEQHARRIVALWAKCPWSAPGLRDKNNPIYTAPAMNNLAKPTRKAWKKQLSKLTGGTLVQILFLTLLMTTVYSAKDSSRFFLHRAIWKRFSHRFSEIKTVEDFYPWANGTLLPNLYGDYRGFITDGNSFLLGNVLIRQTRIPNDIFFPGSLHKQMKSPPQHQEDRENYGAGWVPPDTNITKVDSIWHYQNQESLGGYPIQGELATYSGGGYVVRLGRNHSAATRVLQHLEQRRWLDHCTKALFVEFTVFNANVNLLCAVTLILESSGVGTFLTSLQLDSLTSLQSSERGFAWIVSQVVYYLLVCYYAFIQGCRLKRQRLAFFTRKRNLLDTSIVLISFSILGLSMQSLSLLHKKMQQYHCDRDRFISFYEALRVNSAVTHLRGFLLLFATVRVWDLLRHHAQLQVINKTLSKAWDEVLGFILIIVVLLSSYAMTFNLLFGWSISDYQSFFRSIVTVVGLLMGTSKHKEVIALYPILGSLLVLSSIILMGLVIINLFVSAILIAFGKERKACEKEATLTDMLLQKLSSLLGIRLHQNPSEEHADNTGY

One may read the stoichiometry N as a count of units in the complex or per binding partner. Regarding PKD1L3-EGFP, Q2EG98 21-2151, the stoichiometry N in series [1] came out at 1.

B1: TRPP3-EGFP (natural protein)
chain: MNAVGSPEGQELQKLGSGAWDNPAYSGPPSPHGTLRVCTISSTGPLQPQPKKPEDEPQETAYRTQVSSCCLHICQGIRGLWGTTLTENTAENRELYIKTTLRELLVYIVFLVDICLLTYGMTSSSAYYYTKVMSELFLHTPSDTGVSFQAISSMADFWDFAQGPLLDSLYWTKWYNNQSLGHGSHSFIYYENMLLGVPRLRQLKVRNDSCVVHEDFREDILSCYDVYSPDKEEQLPFGPFNGTAWTYHSQDELGGFSHWGRLTSYSGGGYYLDLPGSRQGSAEALRALQEGLWLDRGTRVVFIDFSVYNANINLFCVLRLVVEFPATGGAIPSWQIRTVKLIRYVSNWDFFIVGCEVIFCVFIFYYVVEEILELHIHRLRYLSSIWNILDLVVILLSIVAVGFHIFRTLEVNRLMGKLLQQPNTYADFEFLAFWQTQYNNMNAVNLFFAWIKIFKYISFNKTMTQLSSTLARCAKDILGFAVMFFIVFFAYAQLGYLLFGTQVENFSTFIKCIFTQFRIILGDFDYNAIDNANRILGPAYFVTYVFFVFFVLLNMFLAIINDTYSEVKEELAGQKDELQLSDLLKQGYNKTLLRLRLRKERVSDVQKVLQGGEQEIQFEDFTNTLRELGHAEHEITELTATFTKFDRDGNRILDEKEQEKMRQDLEEERVALNTEIEKLGRSIVSSPQGKSGPEAARAGGWVSGEEFYMLTRRVLQLETVLEGVVSQIDAVGSKLKMLERKGWLAPSPGVKEQAIWKHPQPAPAVTPDPWGVQGGQESEVPYKREEEALEERRLSRGEIPTLQRS
Consider B1, for which the “stoichiometry N” value in series [2] and in series [3] was 3 throughout.

B2: MBP-TRPP3_CT (domain or fragment)
chain: KEELAGQKDELQLSDLLKQGYNKTLLRLRLRKERVSDVQKVLQGGEQEIQFEDFTNTLRELGHAEHEITELTATFTKFDRDGNRILDEKEQEKMRQDLEEERVALNTEIEKLGRSIVSSPQGKSGPEAARAGGWVSGEEFYMLTRRVLQLETVLEGVVSQIDAVGSKLKMLERKGWLAPSPGVKEQAIWKHPQPAPAVTPDPWGVQGGQESEVPYKREEEALEERRLSRGEIPTLQRS
Regarding B2, the “stoichiometry N” value in series [4] is 3.
